Assay results published in publication PMC12287357 (2025).

Target: SteE_pS141pY143
Assay: BLI

B1: recombinant His6-STAT3^127-715 (domain or fragment)
chain: GQANHPTAAVVTEKQQMLEQHLQDVRKRVQDLEQKMKVVENLQDDFDFNYKTLKSQGDMQDLNGNNQSVTRQKMQQLEQMLTALDQMRRSIVSELAGLLSAMEYVQKTLTDEELADWKRRQQIACIGGPPNICLDRLENWITSLAESQLQTRQQIKKLEELQQKVSYKGDPIVQHRPMLEERIVELFRNLMKSAFVVERQPCMPMHPDRPLVIKTGVQFTTKVRLLVKFPELNYQLKIKVCIDKDSGDVAALRGSRKFNILGTNTKVMNMEESNNGSLSAEFKHLTLREQRCGNGGRANCDASLIVTEELHLITFETEVYHQGLKIDLETHSLPVVVISNICQMPNAWASILWYNMLTNNPKNVNFFTKPPIGTWDQVAEVLSWQFSSTTKRGLSIEQLTTLAEKLLGPGVNYSGCQITWAKFCKENMAGKGFSFWVWLDNIIDLVKKYILALWNEGYIMGFISKERERAILSTKPPGTFLLRFSESSKEGGVTFTWVEKDISGKTQIQSVEPYTKQQLNNMSFAEIIMGYKIMDATNILVSPLVYLYPDIPKEEAFGKYCRPESQEHPEADPGSAAPYLKTKFICVTP
Question: How did the Kd turn out when B1 was run?
Answer: The Kd was 1400 nM.
